Measurements: the supplement of paper PMC9732359
± gives the uncertainty stated by the source.

experiment: protein stability index of a GFP-peptide fusion (yeast GPS) (PSI 1-4); higher = more stable; sorted into four equal gates, so the index is relative within each strain; conditions: ubr1∆
Procedure, shortened: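 Mid-log yeast cultures in leucine-free medium, carrying a pooled plasmid library, were sorted into four equal gates by their GFP/Cherry fluorescence ratio. Each plasmid expressed Cherry along with GFP fused upstream of a tiled 17-residue yeast protein peptide. Plasmids recovered from each gate were PCR-amplified and Illumina-sequenced, with reads assigned to strains by barcodes. The protein stability index was obtained by summing each gate's read frequency weighted by its gate number.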

Row | Sequence | protein stability index
1 | AGVQGSKVSKQQAKGAF [RPL24B] | 3.21 ± 0.081
2 | AHCILGIGGDHAKFSPV [RPC40] | 2.85 ± 0.068
3 | AHKLKKSLDSIPMSKTI [FAS2] | 2.8 ± 0.083
4 | AHRGIRHFWGLRVRGQH [RPS18A] | 2.66 ± 0.053
5 | AHRNGIKKPKTYKYPSL [RPL29] | 2.95 ± 0.1
6 | AHTPMLQMYSKIRRHPN [FAS1] | 2.95 ± 0.048
7 | AIGCIERSDLLPYLSDT [YJR042W/NUP85] | 3.06 ± 0.13
8 | AIKKKEKLLRHVDSLIE [SRB7] | 3.27 ± 0.1
9 | AIVVGWRAIIKAIFPNT [FAS1] | 2.33 ± 0.15
10 | AKEVYKIHQQLLFKARL [GAL11] | 2.84 ± 0.25
11 | AKICALLFFNFSHSLTT [NUT1] | 1.27 ± 0.026
12 | AKKLIQSLPPTLKVNRL [RPL38] | 2.27 ± 0.036
13 | AKKLSSFDFGNENEDED [ARP9] | 3.15 ± 0.087
14 | AKKSTTISKESTPDQRK [ESC2] | 2.92 ± 0.054
15 | AKLSERSNGSVASLSKR [YJL039C/NUP192] | 1.89 ± 0.035
16 | AKNKSTRINGLNSNNSI [REC8] | 3.27 ± 0.073
17 | AKPDEKKNDEVSKPAFS [YJL041W/NSP1] | 3.2 ± 0.14
18 | AKPFQVTKEYFQDVYDL [FAS1] | 2.72 ± 0.063
19 | ALAEGHGDAAVLLVEKY [NAS6] | 2.6 ± 0.11
20 | ALAQQKLLTPQDMEAAK [GAL11] | 3.32 ± 0.095
21 | ALELDDTVVSRVNEMVQ [ECM29] | 3.16 ± 0.1
22 | ALERNWPIVNSKVYFNN [RPN12] | 1.9 ± 0.087
23 | ALFVFYSPNTLGHPDNY [COB] | 1.87 ± 0.054
24 | ALGEFADWDPESMAYTA [YML031W/NDC1] | 3.26 ± 0.064
25 | ALNDVYLDADVAKLANW [YML031W/NDC1] | 3.73 ± 0.24
26 | ALNNAIPGGPKFEPLYP [PRP8] | 3.06 ± 0.046

Row | Sequence | protein stability index
27 | ALNSMCASIPIAIIKDT [RRP46] | 1.79 ± 0.073
28 | ALRALARSGLRIGRIED [RPS14A] | 2.01 ± 0.071
29 | ALRDVKNNNNANNNGSN [GAL11] | 3.41 ± 0.11
30 | ALSGLYYKNFHNSVKRY [SNM1] | 1.22 ± 0.093
31 | ALTQMDQDKVNFASGDN [RPB3] | 3.65 ± 0.28
32 | ALYVLRERIRKGLQIYQ [PRP8] | 2.41 ± 0.29
33 | AMSTVTLGVVGKSEKLS [SKI6] | 2.93 ± 0.073
34 | AMTIYWDDHTKKPLSMA [CDC53] | 2.85 ± 0.062
35 | ANDEEAYIKLLDQTKDT [SNF2] | 3 ± 0.1
36 | ANDFQLTIVTCKQFPKL [SRB8] | 1.82 ± 0.034
37 | ANFGEILEDFRVIKDFK [YMR153W/NUP53] | 3.28 ± 0.096
38 | ANGTVVSFIKNGEEIVG [MTR3] | 1.91 ± 0.11
39 | ANICLTFLESINGINWR [SIN4] | 2.36 ± 0.042
40 | ANKEKRAIILERNAAYQ [RPL7A] | 1.32 ± 0.2
41 | ANPAGASQPEPTTNEPA [YJL041W/NSP1] | 3.16 ± 0.095
42 | ANRVTDKLTRVHDKIWC [PRE3] | 2.34 ± 0.095
43 | ANSSTIRVTNSFALPFE [RPN8] | 3.14 ± 0.039
44 | ANTGGGLFGANSNSNSG [YGL172W/NUP49] | 2.22 ± 0.14
45 | APIGKHYVVLDTNVVLQ [DIS3] | 2.31 ± 0.12
46 | APLFKKNSSRPMPPIRG [SMD3] | 2.5 ± 0.061
47 | APLKHGVGILYKGMASN [BRR2] | 1.3 ± 0.11
48 | APLVLLSALDHYERTQT [RPN8] | 2.42 ± 0.039
49 | APNTLTNILISPLNTTT [YML103C/NUP188] | 1.82 ± 0.045
50 | APRQEISEEETTVKPLF [YAR002W/NUP60] | 3.56 ± 0.17
51 | APTPAAPGASVPATAAP [SWI1] | 3.21 ± 0.05
52 | AQFYLGKRIAYVYRASK [RPL33A] | 1.74 ± 0.069

Row | Sequence | protein stability index
53 | AQHESFLRQKICLMTLI [RPN9] | 1.56 ± 0.064
54 | AQKCGWTIPHKKWNDLK [SIR2] | 2.94 ± 0.038
55 | AQLTLKRCKHFELGGEK [RPL42A] | 2.56 ± 0.076
56 | AQYFYSGAYSYPDFRHY [DIS3] | 1.56 ± 0.081
57 | ARDEILPLRLQFNEFIQ [PGD1] | 2.79 ± 0.058
58 | ARGLTATGKKSRGINKG [RPL15A] | 3.16 ± 0.068
59 | ARGMTSKPAGFMKKLRA [RPS15] | 3.6 ± 0.14
60 | ARIIRSELLARDIFQED [RGR1] | 2.19 ± 0.096
61 | ARLAILKERAKNISSQL [YGR119C/NUP57] | 2.51 ± 0.052
62 | ARQFGYVILTTSAGIMD [RPS22A] | 1.25 ± 0.037
63 | ARVKAFDRHCNMVLENV [SMD2] | 1.87 ± 0.085
64 | ARVLFDDMVEYEDGTPA [CYT1] | 3.48 ± 0.11
65 | ASFGKNLQIRQLFNWCL [DSN1] | 2.33 ± 0.12
66 | ASFNDTFVHVTDLSGKE [RPS14A] | 1.15 ± 0.082
67 | ASILLALTQMDQDKVNF [RPB3] | 2.93 ± 0.056
68 | ASISLPNHIPSVNPSNK [SWP82] | 3.12 ± 0.054
69 | ASKGIDRLSLQDRQQLL [ECM29] | 3.21 ± 0.056
70 | ASKKSGGDVVKFQKLLQ [SMC4] | 3.4 ± 0.17
71 | ASKTNLRLTDVTNSLSN [GAL11] | 3.28 ± 0.064
72 | ASLDGTIRLWECGTGTT [RPN14] | 2.78 ± 0.12
73 | ASLGIGLAAMGSANIEV [RPN2] | 1.53 ± 0.067
74 | ASSAAAGAAGAAAGGDA [RPP2B] | 2.87 ± 0.095
75 | ASSGPRYIVGVRNSVDR [RPT4] | 1.37 ± 0.092
76 | ASTPSIRPDGRLPHQFR [RRP42] | 2.99 ± 0.089
77 | ASTVAKTAPIQESFVPN [YOR098C/NUP1] | 3.21 ± 0.061
78 | ASVTKEILGTAQSVGCR [RPL12A] | 1.61 ± 0.082

Row | Sequence | protein stability index
79 | ATADTTHLHEALDIVCS [NUT1] | 2.69 ± 0.041
80 | ATNANATTDQEGDIHLE [PRE10] | 3.11 ± 0.12
81 | ATNRVDVLDPALLRSGR [RPT5] | 2.94 ± 0.075
82 | ATPFRQWFEAHYGQTLG [RPS8A] | 2.573 ± 0.019
83 | ATPSAKEASQEDDNNNV [YLR335W/NUP2] | 2.73 ± 0.05
84 | ATQKESLEMVPKDTSAA [RGR1] | 3.17 ± 0.05
85 | ATTGGLFGSKPQGSTTN [YGR119C/NUP57] | 3.55 ± 0.18
86 | ATVDEFPLCVHLVSNEL [RPL10] | 2.99 ± 0.053
87 | ATYMDNDIAGQPQALQK [RPO21] | 2.7 ± 0.051
88 | AVEQLAGCKIDNVDDIG [YDL088C/ASM4] | 2.61 ± 0.047
89 | AVGNLGNAVTVTEDGTV [RPL22A] | 1.99 ± 0.094
90 | AVKKLYAIIINYTKDNE [YCS4] | 1.91 ± 0.029
91 | AVSKDPLLTKRKDLRDK [DIS3] | 3.25 ± 0.14
92 | AVSRSMTDIWNTLIPES [ECM29] | 3.03 ± 0.069
93 | AVVFKPFKGEVVDGTVV [RPB7] | 2.79 ± 0.068
94 | AVVGNNMLLDPAANESE [RRP42] | 2.12 ± 0.048
95 | AYEEEEENEDNDGNNRT [NUT1] | 3.46 ± 0.068
96 | AYLLLVQGGNAAPSAAD [RPP2B] | 2.45 ± 0.061
97 | CDGDTVWDKFAVNLLNC [SSN2] | 3.11 ± 0.1
98 | CDKSVCRKCYARLPPRA [RPL40A] | 2.66 ± 0.062
99 | CDLSSKFNKSKAKFTSL [YCS4] | 2.64 ± 0.037
100 | CFSQENIEEMARVILYL [SIN4] | 2.76 ± 0.054
101 | CFVLGIASMSTVRASSL [SMC2] | 1.94 ± 0.065
